Laboratory results published in US20240110168.

Biological target: T1, second subunit of the Jack Bean (Canavalia ensiformis) β-hexosaminidase
T1 chain: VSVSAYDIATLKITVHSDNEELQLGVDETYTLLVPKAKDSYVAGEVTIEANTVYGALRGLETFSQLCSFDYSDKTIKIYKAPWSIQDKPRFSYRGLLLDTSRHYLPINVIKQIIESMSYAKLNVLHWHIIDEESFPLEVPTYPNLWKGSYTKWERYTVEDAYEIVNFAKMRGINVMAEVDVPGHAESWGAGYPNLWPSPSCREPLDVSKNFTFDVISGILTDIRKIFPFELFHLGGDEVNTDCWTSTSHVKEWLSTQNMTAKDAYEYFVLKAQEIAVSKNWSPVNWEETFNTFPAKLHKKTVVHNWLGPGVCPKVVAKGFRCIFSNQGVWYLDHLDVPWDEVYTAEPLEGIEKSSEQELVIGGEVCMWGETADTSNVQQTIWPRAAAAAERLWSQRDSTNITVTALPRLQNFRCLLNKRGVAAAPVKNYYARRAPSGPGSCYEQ

B1: first subunit of the Jack Bean (Canavalia ensiformis) β-hexosaminidase (protein)
chain: SIIEPTESLTYLWPLPADFTSGDETLSVDPALTLSVAGNGGGSSILRDAFDRYRGIIFKHSSVGFS
modifications: not fully specified
  β-hexosaminidase (b-Hex) activity: Dissociation of the two chains led to a complete loss of activity
